In this experiment the test system is S. cerevisiae strain sKR-024. The experiment in a line: Mock selection for glyphosate resistance, 50:50 inoculum, flow cytometry. The class given is cell-based, Saccharomyces cerevisiae. The protocol: Yeast cultures were either started directly from a random colony or from freezer stock and picked in triplicate into appropriate selective media, either YSC-Ura, YSC-Leu, and YSC-Ura-Leu. Cultures were grown for 48 hours at 30° C. to saturation phase. Fully grown yeast cultures were then diluted back to OD 0.01 and allowed to grow for 48 hours at 30° C. in a 96 deep-well plate shaker. Fluorescence was then analyzed via flow cytometry (BD Accuri C6 Flow Cytometer, BD Biosciences) at an excitation of 588 nm and emission of 633 nm for mKate2 RFP. Yeast populations of interest were then gated according to relative size and complexity using a logarithmic plot of side scatter (SSC) and forward scatter (FSC) and spectra were generated outlining RFP fluorescence intensity vs. cell count. FlowJo software was used to analyze all flow cytometry data.
To do so, a mock selection for glyphosate resistance was achieved by transforming wild-type EPSPS into sKR-024 containing an RFP cassette and TIPS into sKR-024 without an RFP cassette to enable flow cytometry tracking of population distributions. A 50:50 starting inoculum of each strain was cultured in yeast minimal media containing 0, 2.5, 5, 7.5, or 10 mM glyphosate.

B1: TIPS: Zea mays EPSPS double mutant T102I and P106S, SEQ ID NO:9; positive control (protein)
chain: AGAEEIVLQPIKEISGTVKLPGSKSLSNRILLLAALSEGTTVVDNLLNSEDVHYMLGALRTLGLSVEADKAAKRAVVVGCGGKFPVEDSKEEVQLFLGNAGIAMRSLTAAVTAAGGNATYVLDGVPRMRERPIGDLVVGLKQLGADVDCFLGTDCPPVRVNGIGGLPGGKVKLSGSISSQYLSALLMAAPLALGDVEIEIIDKLISIPYVEMTLRLMERFGVKAEHSDSWDRFYIKGGQKYKSPKNAYVEGDASSASYFLAGAAITGGTVTVEGCGTTSLQGDVKFAEVLEMMGAKVTWTETSVTVTGPPREPFGRKHLKAIDVNMNKMPDVAMTLAVVALFADGPTAIRDVASWRVKETERMVAIRTELTKLGASVEEGPDYCIITPPEKLNVTAIDTYDDHRMAMAFSLAACAEVPVAIRDPGCTRKTFPDYFDVLSTFVKN
modifications: Zea mays
notes: positive control
Consider B1, for which, for the setting “0, 2.5, 5, 7.5 or 10 mM glyphosate”, the “cell count after addition of glyphosate” value was “consistent cell count across multiple levels of glyphosate”. Further, for the setting “0 mM glyphosate”, the “cell count in the absence of glyphosate” value is “consistently lower cell count of TIPS relative to wild-type EPSPS”.
